Measurements from the supplement of paper PMC9112550, “Optimization of the antimicrobial peptide Bac7 by deep mutational scanning” (BMC Biology, 2022).

Tested on: Escherichia coli TOP10
Experiment: shrunken log2 fold change of peptide-encoding DNA abundance (4.5 h post-induction vs induction); higher = less antimicrobial activity (less host growth inhibition)
Conditions: time post-induction: 4.5 h; library: site-saturation at positions 5, 18, 19, 20
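Also: peptides expressed intracellularly from a pBAD plasmid library in pooled LB shake-flask culture, induced with 0.3% L-arabinose, DNA abundance read by NGS, three biological replicates, DESeq2 with apeglm shrinkage.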

Sequence | shrunken log2 fold change
RRIRKRPPRLPRPRPRPKFVPRP | -0.0367
RRIRKRPPRLPRPRPRPKHCPRP | -0.222
RRIRKRPPRLPRPRPRPKHLPRP | -0.334
RRIRKRPPRLPRPRPRPKHTPRP | 0.281
RRIRKRPPRLPRPRPRPKIDPRP | 0.545
RRIRKRPPRLPRPRPRPKKAPRP | 0.0547
RRIRKRPPRLPRPRPRPKLIPRP | 0.0851
RRIRKRPPRLPRPRPRPKLTPRP | 0.104
RRIRKRPPRLPRPRPRPKLWPRP | 0.656
RRIRKRPPRLPRPRPRPKLYPRP | 0.164
RRIRKRPPRLPRPRPRPKMCPRP | -0.0224
RRIRKRPPRLPRPRPRPKMQPRP | 0.00648
RRIRKRPPRLPRPRPRPKNGPRP | 0.173
RRIRKRPPRLPRPRPRPKPGPRP | 1.2
RRIRKRPPRLPRPRPRPKPVPRP | 0.39
RRIRKRPPRLPRPRPRPKQGPRP | 0.121
RRIRKRPPRLPRPRPRPKRIPRP | 0.0395
RRIRKRPPRLPRPRPRPKRRPRP | 0.0103
RRIRKRPPRLPRPRPRPKSPPRP | 0.385
RRIRKRPPRLPRPRPRPKSRPRP | 0.296
RRIRKRPPRLPRPRPRPKSSPRP | 0.202
RRIRKRPPRLPRPRPRPKWGPRP | 0.594
RRIRKRPPRLPRPRPRPKWTPRP | 0.198
RRIRKRPPRLPRPRPRPKYLPRP | -0.0198
RRIRKRPPRLPRPRPRPLAHPRP | 0.551

Sequence | shrunken log2 fold change
RRIRKRPPRLPRPRPRPLDSPRP | 0.233
RRIRKRPPRLPRPRPRPLDTPRP | 0.000649
RRIRKRPPRLPRPRPRPLESPRP | 0.515
RRIRKRPPRLPRPRPRPLFVPRP | 0.153
RRIRKRPPRLPRPRPRPLFYPRP | -0.0645
RRIRKRPPRLPRPRPRPLHTPRP | -0.368
RRIRKRPPRLPRPRPRPLIGPRP | 0.28
RRIRKRPPRLPRPRPRPLKDPRP | -0.22
RRIRKRPPRLPRPRPRPLKMPRP | 0.0436
RRIRKRPPRLPRPRPRPLLPPRP | 0.227
RRIRKRPPRLPRPRPRPLMCPRP | -0.122
RRIRKRPPRLPRPRPRPLMGPRP | 0.818
RRIRKRPPRLPRPRPRPLNHPRP | -0.0528
RRIRKRPPRLPRPRPRPLPEPRP | 0.351
RRIRKRPPRLPRPRPRPLPHPRP | -0.0107
RRIRKRPPRLPRPRPRPLPIPRP | 0.143
RRIRKRPPRLPRPRPRPLPNPRP | -0.0104
RRIRKRPPRLPRPRPRPLRFPRP | 0.896
RRIRKRPPRLPRPRPRPLRWPRP | 1.37
RRIRKRPPRLPRPRPRPLSFPRP | -0.191
RRIRKRPPRLPRPRPRPLSVPRP | -0.00128
RRIRKRPPRLPRPRPRPLTDPRP | -0.0168
RRIRKRPPRLPRPRPRPLVDPRP | 0.218
RRIRKRPPRLPRPRPRPLWGPRP | 0.115
RRIRKRPPRLPRPRPRPLWQPRP | 0.442

Sequence | shrunken log2 fold change
RRIRKRPPRLPRPRPRPLWTPRP | 0.0306
RRIRKRPPRLPRPRPRPLYDPRP | -0.0647
RRIRKRPPRLPRPRPRPMCIPRP | -0.00174
RRIRKRPPRLPRPRPRPMCLPRP | -0.0392
RRIRKRPPRLPRPRPRPMCYPRP | -0.00324
RRIRKRPPRLPRPRPRPMDHPRP | 0.34
RRIRKRPPRLPRPRPRPMEAPRP | 0.0719
RRIRKRPPRLPRPRPRPMFLPRP | -0.0587
RRIRKRPPRLPRPRPRPMFVPRP | 0.426
RRIRKRPPRLPRPRPRPMFYPRP | -0.169
RRIRKRPPRLPRPRPRPMGFPRP | -0.00871
RRIRKRPPRLPRPRPRPMGIPRP | -0.00149
RRIRKRPPRLPRPRPRPMHLPRP | -0.0647
RRIRKRPPRLPRPRPRPMIAPRP | 0.509
RRIRKRPPRLPRPRPRPMKCPRP | 0.0794
RRIRKRPPRLPRPRPRPMKIPRP | 0.291
RRIRKRPPRLPRPRPRPMKMPRP | 0.473
RRIRKRPPRLPRPRPRPMLGPRP | 0.00289
RRIRKRPPRLPRPRPRPMLMPRP | 0.322
RRIRKRPPRLPRPRPRPMMSPRP | -0.00973
RRIRKRPPRLPRPRPRPMPGPRP | 0.0564
RRIRKRPPRLPRPRPRPMPSPRP | 0.0546
RRIRKRPPRLPRPRPRPMQPPRP | 0.288
RRIRKRPPRLPRPRPRPMRHPRP | 0.0303
RRIRKRPPRLPRPRPRPMTMPRP | -0.00185

Sequence | shrunken log2 fold change
RRIRKRPPRLPRPRPRPMVRPRP | 0.00145
RRIRKRPPRLPRPRPRPMWIPRP | -0.0247
RRIRKRPPRLPRPRPRPMYNPRP | -0.315
RRIRKRPPRLPRPRPRPNACPRP | 0.0357
RRIRKRPPRLPRPRPRPNAKPRP | -0.0195
RRIRKRPPRLPRPRPRPNAMPRP | -0.0822
RRIRKRPPRLPRPRPRPNATPRP | 1.16
RRIRKRPPRLPRPRPRPNCIPRP | -0.0156
RRIRKRPPRLPRPRPRPNECPRP | 0.157
RRIRKRPPRLPRPRPRPNFGPRP | 0.252
RRIRKRPPRLPRPRPRPNFPPRP | 0.117
RRIRKRPPRLPRPRPRPNFRPRP | 0.155
RRIRKRPPRLPRPRPRPNGKPRP | -0.114
RRIRKRPPRLPRPRPRPNGVPRP | 0.0149
RRIRKRPPRLPRPRPRPNIDPRP | -0.0981
RRIRKRPPRLPRPRPRPNKMPRP | -0.231
RRIRKRPPRLPRPRPRPNKTPRP | -0.227
RRIRKRPPRLPRPRPRPNNWPRP | 0.42
RRIRKRPPRLPRPRPRPNPPPRP | 0.0342
RRIRKRPPRLPRPRPRPNSMPRP | -0.115
RRIRKRPPRLPRPRPRPNWCPRP | -0.0436
RRIRKRPPRLPRPRPRPNYEPRP | -0.0635
RRIRKRPPRLPRPRPRPPAPPRP | 1.14
RRIRKRPPRLPRPRPRPPCHPRP | 0.176
RRIRKRPPRLPRPRPRPPDIPRP | 0.609

Sequence | shrunken log2 fold change
RRIRKRPPRLPRPRPRPPGGPRP | 0.811
RRIRKRPPRLPRPRPRPPHPPRP | 0.672
RRIRKRPPRLPRPRPRPPIGPRP | 0.407
RRIRKRPPRLPRPRPRPPILPRP | 0.0292
RRIRKRPPRLPRPRPRPPISPRP | 0.22
RRIRKRPPRLPRPRPRPPKQPRP | 0.202
RRIRKRPPRLPRPRPRPPKTPRP | 0.0147
RRIRKRPPRLPRPRPRPPLWPRP | 0.931
RRIRKRPPRLPRPRPRPPNYPRP | -0.19
RRIRKRPPRLPRPRPRPPPPPRP | 1.23
RRIRKRPPRLPRPRPRPPQVPRP | 0.00672
RRIRKRPPRLPRPRPRPPRDPRP | 1.01
RRIRKRPPRLPRPRPRPPRQPRP | 0.82
RRIRKRPPRLPRPRPRPPTCPRP | 0.217
RRIRKRPPRLPRPRPRPPTRPRP | 1.49
RRIRKRPPRLPRPRPRPPTWPRP | 0.702
RRIRKRPPRLPRPRPRPPWPPRP | 0.827
RRIRKRPPRLPRPRPRPPYPPRP | 0.0247
RRIRKRPPRLPRPRPRPPYTPRP | 0.0509
RRIRKRPPRLPRPRPRPQAWPRP | 0.314
RRIRKRPPRLPRPRPRPQCRPRP | 0.162
RRIRKRPPRLPRPRPRPQCYPRP | -0.114
RRIRKRPPRLPRPRPRPQDRPRP | 0.201
RRIRKRPPRLPRPRPRPQDVPRP | -0.0018
RRIRKRPPRLPRPRPRPQDWPRP | 0.413

Sequence | shrunken log2 fold change
RRIRKRPPRLPRPRPRPQEFPRP | -0.0241
RRIRKRPPRLPRPRPRPQESPRP | -0.00973
RRIRKRPPRLPRPRPRPQIQPRP | 0.0528
RRIRKRPPRLPRPRPRPQPEPRP | 0.7
RRIRKRPPRLPRPRPRPQPQPRP | 0.817
RRIRKRPPRLPRPRPRPQQAPRP | -0.0621
RRIRKRPPRLPRPRPRPQQGPRP | 0.23
RRIRKRPPRLPRPRPRPQRWPRP | 0.0222
RRIRKRPPRLPRPRPRPQSWPRP | 0.451
RRIRKRPPRLPRPRPRPQTCPRP | -0.132
RRIRKRPPRLPRPRPRPQWDPRP | 0.00929
RRIRKRPPRLPRPRPRPQWRPRP | 0.309
RRIRKRPPRLPRPRPRPQYLPRP | -0.0967
RRIRKRPPRLPRPRPRPQYVPRP | -0.143
RRIRKRPPRLPRPRPRPRCPPRP | 0.52
RRIRKRPPRLPRPRPRPRCQPRP | 0.099
RRIRKRPPRLPRPRPRPRDEPRP | -0.0461
RRIRKRPPRLPRPRPRPRFKPRP | 0.52
RRIRKRPPRLPRPRPRPRFQPRP | -0.00313
RRIRKRPPRLPRPRPRPRFVPRP | 0.0638
RRIRKRPPRLPRPRPRPRHSPRP | 0.152
RRIRKRPPRLPRPRPRPRIEPRP | 0.112
RRIRKRPPRLPRPRPRPRKLPRP | 0.0707
RRIRKRPPRLPRPRPRPRLCPRP | 0.308
RRIRKRPPRLPRPRPRPRMTPRP | 0.635
